Experimental data taken from article PMC3621117 (The FEBS journal, 2013).

Molecular target: the molecule itself
Test: SEC

B1: wild-type ExsD (natural protein)
chain: VVGSDARSRGRVPGYASSSLYRESGIISARQLALLQRMLPRLRLEQLFRCEWLQQRLARGLALGREEVRQILLCAAQDDDGWCSELGDRVNLAVPQSMIDWVLLPVYGWWESLLDQAIPGWRLSLVELETQSRQLRVKSEFWSRVAELEPEQAREELARVAKCQARTQEQVAELAGKLETASALAKSAWPNWQRGMATLLASGGLAGFEPIPEVLECLWQPLCRLDDDVGAADAVQAWLHERNLCQAQDHFYWQS
stoichiometry N: 3
